Measurements as given in patent publication US8252764B2, “Compositions and methods of use of targeting peptides against placenta and adipose tissues” (priority 2000, dated 2012).

Tests used:
β5 integrin = target: T1, β5 integrin (Homo sapiens, UniProt P18084); test: Annexin V binding to GST-β5 integrin cytoplasmic domain (ELISA, competition); settings: binding dependent on the buffer: low in TBS, high in cytoplasmic buffer
T1 construct: Plates were coated with GST fusion proteins of the cytoplasmic domains of various integrins
T1 sequence (P18084 743-799 limits assumed): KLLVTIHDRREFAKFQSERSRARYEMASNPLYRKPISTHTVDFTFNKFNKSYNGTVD
Method: FIG. 29A. Competitive binding of Annexin V to β5 integrin with VISY peptide. Binding assays were performed by ELISA.
(§1) Competitive binding assays were performed to examine the binding of Annexin V to β5 integrin and the effect of the VISY peptide. Plates were coated with GST fusion proteins of the cytoplasmic domains of various integrins and Annexin V was added to the plates. Binding of Annexin V was determined using anti-Annexin V antibodies. […] Calcium was used because Annexin V activity has been reported to be modulated by calcium. Binding of Annexin V to GST-β5 was blocked by addition of the VISY peptide (FIG. 29A).
A reciprocal study was performed, using Annexin V to coat plates and adding GST fusion proteins of integrin cytoplasmic domains. Binding was assessed using anti-GST fusion protein antibodies. […] In some studies, calcium ion appeared to interfere with the binding interaction between GST-β5 and Annexin V, with decreased binding observed in the presence of calcium (not shown).

GST-β1 = target: T2, GST-β1 (Homo sapiens, UniProt P05556); test: Annexin V binding to GST-β1 integrin cytoplasmic domain (ELISA)
T2 construct: Plates were coated with GST fusion proteins of the cytoplasmic domains of various integrins
Method: as §1

GST-β3 = target: T3, GST-β3 (Homo sapiens, UniProt P05106); test: Annexin V binding to GST-β3 integrin cytoplasmic domain (ELISA)
T3 sequence (P05106 742-788 limits assumed): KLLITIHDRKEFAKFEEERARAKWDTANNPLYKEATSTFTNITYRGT
Method: as §1

placenta [1] = settings: GST conjugates-I; 1 mouse sc (predominantly) or iv ~every other day, day 4-day 17, 10 times, Total 800 μg
From the text: The CARAC peptide (SEQ ID NO:12), an adipose targeting peptide (FE, TREVHRS, SEQ ID NO:13) or fd-tet phage were used as non-placental targeting controls.

[2] = system: mouse villous yolk sac (vys); test: Peptide localization in placenta (immunohistochemistry, FITC immunofluorescence); format: in vivo; settings: 18 dpc pregnant mice, intravenous, 6 h
Method: Fusion and Recombinant Peptides Carboxyfluorescein (FITC)-conjugated [sequence] […] The FITC-peptide stocks were made by dissolving lyophilized peptides in DMSO to a concentration of 20 mM, after which the peptides were diluted to 1 mM with PBS (phosphate buffered saline) and aliquots were frozen until use. The [sequence] (SEQ ID NO:144) peptide and an unrelated control peptide, [sequence] (SEQ ID NO:87), fused in-frame with GST at the amino-terminus were purified to approximately 90% purity using the BugBuster GST Bind Kit (Novagen, Madison, Wis.). Purified peptides were buffer-exchanged into PBS using Centricon PL-10 columns (Millipore, Bedford, Mass.) and the aliquots were frozen until use. […]
Peptide Localization in Tissues Immunohistochemistry on sections of formalin-fixed, paraffin-embedded mouse tissue was performed as described (Pasqualini et al., 2000; Pasqualini and Ruoslahti, 1996): For phage-peptide immunolocalization, a rabbit anti-fd phage antibody (Sigma Chemicals, St. Louis, Mo.) was used at 1:1,000 dilution and detected with a secondary horseradish peroxidase (HRP)-conjugated antibody. For GST-peptide immunolocalization, a goat anti-GST antibody (Amersham, Piscataway, N.J.) was used at 1:1,000 dilution and detected with a secondary alkaline phosphatase (AP)-conjugated antibody. […]

placental transporter = test: Phage recovery from embryos (materno-fetal transfer); format: in vivo, mouse; settings: excess of co-injected peptide
Method: FIG. 4. The TPKTSVT (SEQ ID NO:5) peptide specifically binds a placental transporter. (A) Recovery of indicated phage from embryos carried by 18 dpc pregnant mice intravenously injected (tail vein) with 10^10 TU of the indicated phage 6 h prior to phage recovery or immunohistochemistry. […] TPKTSVT (SEQ ID NO:5) phage were administered alone (dark cross-hatched) or co-administered with control-GST (black) or TPKTSVT (SEQ ID NO:5) linked to GST (white bar). Shown are mean+/−SEM (standard error) from different embryos. (B-D) Anti-phage IMP immunohistochemistry (arrowheads) in paraffin sections of the vys from the corresponding mice, as indicated. Asterisks mark embryonic capillaries. Bar: 20 μm.
Phage Recovery Mouse placentas and embryonic livers were individually weighed, ground with a glass Dounce homogenizer and suspended in 1 ml of Dulbecco's Modified Eagle's Medium (DMEM) containing proteinase inhibitors (DMEM-prin—1 mM PMSF, 20 μg/ml aprotinin, and 1 μg/ml leupeptin). The suspension was vortexed and washed three times with DMEM-prin. […]
The TPKTSVT (SEQ ID NO:5) Peptide Binds to a Placental Transporter The TPKTSVT (SEQ ID NO:5) peptide localizes to the vys (FIG. 3), which is the tissue primarily responsible for materno-fetal transport in mice. […] Either TPKTSVT (SEQ ID NO:5)-phage or control phage were injected into pregnant mice and the recovery of phage from embryos was determined.

[3] = target: T4, FcRn/β2m receptor complex (Mus musculus, UniProt P01887+Q61559); test: Placental IgG transcytosis blocking; format: in vivo; settings: 18 dpc pregnant mouse, iv, 6 h
T4 construct: from tissue; host or cells: placenta (visceral yolk sac) of 18 dpc pregnant C57BL/6 mice, in vivo
T4 sequence (Q61559 22-365): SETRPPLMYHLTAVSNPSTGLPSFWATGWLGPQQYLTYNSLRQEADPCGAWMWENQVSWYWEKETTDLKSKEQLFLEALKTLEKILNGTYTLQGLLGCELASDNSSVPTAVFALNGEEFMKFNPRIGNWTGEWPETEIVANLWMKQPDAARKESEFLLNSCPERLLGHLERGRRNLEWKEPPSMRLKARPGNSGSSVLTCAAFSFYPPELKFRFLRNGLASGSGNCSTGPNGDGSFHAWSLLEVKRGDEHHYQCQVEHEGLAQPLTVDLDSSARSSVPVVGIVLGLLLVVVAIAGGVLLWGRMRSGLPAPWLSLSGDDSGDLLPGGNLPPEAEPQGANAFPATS
T4 sequence (P01887 21-119): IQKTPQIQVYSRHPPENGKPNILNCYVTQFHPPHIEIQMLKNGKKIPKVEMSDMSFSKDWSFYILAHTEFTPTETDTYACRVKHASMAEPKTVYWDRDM
Method: A 18 dpc pregnant mouse was intravenously injected with: (A) 100 mg of control GST fusion or (B) TPKTSVT (SEQ ID NO:5) linked to GST. The IgG distribution in the placenta after 6 h of peptide circulation was detected by anti-mouse IgG immunohistochemistry in paraffin sections.
For in vivo peptide homing validation, 10 μl of FTC-peptide stocks diluted 20-fold with PBS or, 250 μl of 5 mg/ml GST-peptides were injected. For phage homing competition and IgG transcytosis blocking experiments, 500 μl of 5 mg/ml GST-peptides were administered intravenously.
For GST-peptide immunolocalization, a goat anti-GST antibody (Amersham, Piscataway, N.J.) was used at 1:1,000 dilution and detected with a secondary alkaline phosphatase (AP)-conjugated antibody. For mouse IgG immunolocalization, the ARK Peroxidase Kit (DAKO, Carpinteria, Calif.) was used. All immunohistochemistry and FITC immunofluorescence images were captured using an Olympus IX70 microscope and digital camera setup.

placenta [4] = test: Peptide embryotoxicity in pregnant mice; format: in vivo, mouse; settings: subcutaneous injections from ~12 dpc
From the text: FIG. 7. TPKTSVT (SEQ ID NO:5) peptide inhibits mouse pregnancy and is teratogenic. (A) Pregnancy courses (representative from 5 independent experiments) in mice subcutaneously injected with the indicated phage or peptides were monitored by daily weighing of the mice upon each injection (arrows). (B) Appearance of a normally developed 20 dpc embryo (left) for control GST fusion treatment compared to a representative 20 dpc embryo (right) resulting from TPKTSVT (SEQ ID NO:5) linked to GST fusion treatment. A severely teratogenic phenotype is observed with the placental targeting fusion peptide. (C) and […]) Hematoxylin/eosin staining of 20 dpc paraffin-embedded placentas derived from mice injected for 7 days with (C) control GST fusion or (D) the TPKTSVT (SEQ ID NO:5) linked to GST fusion peptide. Note hemorrhage (black asterisks), necrosis (white asterisks), and fibrosis (arrowheads). Bar: 500 μm (50 μm for insets).
Peptide Embryotoxicity For peptide embryotoxicity studies, agents were injected at the following daily doses: GST-peptides 0.1 mg (˜3 nMoles), FITC-peptides 50 μg (˜30 nMoles),and phage-peptides 10″ TU. All agents were dissolved in PBS. Mice were injected subcutaneously in the back (5-10 injections per course).
The phage or fusion peptides were subcutaneously injected and the progression of pregnancy was compared with mice injected with control phage, control peptides, or saline. Multiple injections of the TPKTSVT (SEQ ID NO:5) peptide were administered, starting at mid-pregnancy (˜12 days postconception, dpc) in doses non-toxic to the mother.

T2 sequence (P05556 752-798 limits assumed): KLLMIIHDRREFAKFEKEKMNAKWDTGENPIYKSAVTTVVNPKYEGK

binding of Annexin V to GST-β5 integrin (β5 integrin)	binding of Annexin V to GST-β1 integrin (GST-β1)	binding of Annexin V to GST-β3 integrin (GST-β3)	Substance	Peptide Effect on Embryo (placenta [1])	Pregnancy Outcome (placenta [1])	localization in placenta [2]	effect on materno-fetal transfer / vys uptake of TPKTSVT-phage on co-injection (placental transporter)	effect on placental transfer of IgG to the vys [3]	embryos on the 20th day of pregnancy (placenta [4])	progression of pregnancy (weight gain) (placenta [4]; compared to control phage or GST-peptide)
bound strongly	did not bind	did not bind	Annexin V: 36 kDa endogenous protein analog of the VISY peptide, GenBank GI-468888							
			GST-PA: PA placental targeting peptide (TPKTSVT) fused to GST (glutathion S-transferase)	Pregnancy termination	No delivery or fetuses after 21 d	readily detectable in the apical cytoplasm of the vys	prevented internalization	blocked translocation of IgG through the placenta	Growth-retarded, dead, or partially resorbed embryos	diminished weight gain
